T1: glutathione-S-transferase (GST)-His-mouse Myl9 (mouse, UniProt Q9CQ19 2-172)
T1 construct: The order of the pieces follows the printed name; not shown: glutathione-S-transferase tag of the pET42b vector
T1 sequence: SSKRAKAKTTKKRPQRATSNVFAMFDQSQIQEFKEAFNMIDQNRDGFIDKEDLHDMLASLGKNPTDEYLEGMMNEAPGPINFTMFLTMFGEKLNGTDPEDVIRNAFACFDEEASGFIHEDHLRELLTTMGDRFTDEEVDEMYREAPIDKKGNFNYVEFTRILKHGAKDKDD

T2: human Myl9-His (human, UniProt P24844 2-172, limits assumed)
T2 construct: Made in E. coli; the GST tag was cleaved with PreScission Protease
T2 sequence: T1 sequence with N74S

T3: human Myl12a-His (human, UniProt P19105 1-171)
T3 construct: Made in E. coli; GST tag cleaved with PreScission Protease; DTT-treated monomer
T3 sequence: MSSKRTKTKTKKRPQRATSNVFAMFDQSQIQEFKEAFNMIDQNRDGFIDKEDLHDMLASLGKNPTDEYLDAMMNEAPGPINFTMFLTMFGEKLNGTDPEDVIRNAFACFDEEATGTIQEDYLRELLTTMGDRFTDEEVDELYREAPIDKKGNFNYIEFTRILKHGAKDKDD

T4: human Myl12b-His (human, UniProt O14950 1-172)
T4 construct: Made in E. coli; GST tag cleaved with PreScission Protease; DTT-treated monomer
T4 sequence: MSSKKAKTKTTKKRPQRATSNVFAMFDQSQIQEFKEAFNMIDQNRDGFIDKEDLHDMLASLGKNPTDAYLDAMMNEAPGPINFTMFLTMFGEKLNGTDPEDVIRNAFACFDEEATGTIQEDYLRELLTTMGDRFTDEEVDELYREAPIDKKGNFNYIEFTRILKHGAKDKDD

B1: 3× Flag-mouse CD69 EC (with sugar chain) (receptor, not shown: small tags and cut ends)
chain: NVGKYNCPGLYEKLESSDHHVATCKNEWISYKRTCYFFSTTTKSWALAQRSCSEDAATLAVIDSEKDMTFLKRYSGELEHWIGLKNEANQTWKWANGKEFNSWFNLTGSGRCVSVNHKNVTAVDCEANFHWVCSKPSR
modifications: N-linked sugar chains present (made in Expi293F cells, not PNGase F treated)
notes: Secreted from Expi293F cells and purified on Anti-Flag M2 gel; also called 3× Flag mouse CD69 EC protein; mouse CD69 extracellular region protein
B2: PNGase F-treated 3× Flag-mouse CD69 EC (without sugar chain) (receptor, not shown: small tags and cut ends)
chain: B1 chain
modifications: N-linked sugar chain cleaved with PNGase F
notes: also called 3× Flag-mouse CD69 EC subjected to sugar chain cleaving treatment; mouse CD69 extracellular region protein
B3: Humanized antibody No. 112 (antibody, human IgG2, kappa, V domains shown)
VH: QVQLVQSGAEVKKPGSSVKVSCKASGGTFSDYEMHWVRQAPGQGLEWMGAIDPETGGTAYNQKFKGRVTITADKSTSTAYMELSSLRSEDTAVYYCADYDYDGFAYWGQGTLVTVSS
VL: DIVMTQSPLSLSITPGEQASISCRSSQSLVHSNGNTYLHWYLQKPGQSPQLLISKVSNRFSGVPDRFSGSGSGTDFTLKISRVEAEDVGVYFCSQNTHVPPLTFGGGTKVEIKR
notes: human IgG2 (V234A, G237A, C-terminal Lys deleted) / kappa; Expi293F, Protein A purified; also called HK1-5/L1-5
B4: Humanized antibody No. 116 (antibody, human IgG2, kappa, V domains shown)
VH: B3 VH with S16A, G27Y, S30T, I70M, K74T
VL: B3 VL
notes: human IgG2 (V234A, G237A, C-terminal Lys deleted) / kappa; Expi293F, Protein A purified; also called HK2-5/L1-5
B5: Humanized antibody No. 115 (antibody, human IgG2, kappa, V domains shown)
VH: B3 VH with G27Y, M48I, V68A, S84R, A97T
VL: B3 VL
notes: human IgG2 (V234A, G237A, C-terminal Lys deleted) / kappa; Expi293F, Protein A purified; also called HK1-A/L1-5
B6: Humanized antibody No. 114 (antibody, human IgG2, kappa, V domains shown)
VH: B3 VH with V68A, S84R
VL: B3 VL
notes: human IgG2 (V234A, G237A, C-terminal Lys deleted) / kappa; Expi293F, Protein A purified; also called HK1-4/L1-5

Consider 6 molecules from patent publication US20190002588A1 (NATIONAL UNIVERSITY CORPORATION CHIBA UNIVERSITY, published 2019).

Residue numbers refer to the chain shown, from its start. Names may count otherwise.

T5 sequence (P08590 2-195 limits assumed): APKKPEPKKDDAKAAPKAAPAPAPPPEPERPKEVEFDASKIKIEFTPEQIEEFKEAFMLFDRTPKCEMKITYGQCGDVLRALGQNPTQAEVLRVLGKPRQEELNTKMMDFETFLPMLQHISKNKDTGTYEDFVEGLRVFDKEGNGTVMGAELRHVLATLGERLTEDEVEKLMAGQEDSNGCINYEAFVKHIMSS

The target of one assay is T1, glutathione-S-transferase …. In words: ELISA, GST-His-mouse Myl9 coated, anti-Flag-HRP. The method, then: Next, ELISA was performed in order to analyze the presence or absence of association between mouse Myl9 and mouse CD69 (FIGS. 3A and 3B). Specifically, GST-His-mouse Myl3 protein and GST-His-mouse Myl9 protein were added at a concentration of 5 μg/mL, and this was incubated overnight at 4° C. to immobilize them onan ELISA plate. On the next day, Block Ace (Sumitomo Dainippon Pharma Co., Ltd.) was employed to allow blocking at […] temperature for one hour, and then this was washed three times with a wash buffer (50 mM HEPES (pH 6.5), 150 mM NaCl, and 0.02% Tween 20). Different concentration of 3× Flag mouse CD69 EC protein was added to each well, and this was reacted at room temperature for one and a half hours. In FIG. 3B, 3× Flag mouse CD69 EC protein in which the N-linked sugar chain was cleaved with PNGase F (NEB) was employed. The cleaving treatment of the N-linked sugar chain was performed by employing 1,000 U of PNGase F for 4 μg of 3× Flag mouse CD69 EC protein. After washing three times with the wash buffer, HRP-labeled anti-Flag (M2) antibody (Sigma) was added, this was reacted at room temperature for one hour, and then washed five times with the wash buffer. TMB solution (BIO-RAD) was used as the coloring substrate, and the reaction was quenched with 1N H₂SO₄. SpectraMAX Paradigm (Molecular Device) was employed to measure the value at 450 nm.
Background: In an ELISA, binding on a coated surface is turned into a signal by an enzyme label.
Turning to B1, the binding result is “binds”.

Consider B2, for which the binding result was “binds”.

Another assay has as its target T2, human Myl9-His. In words: ELISA, human Myl9-His coated, anti-human IgG-HRP. The method, then:
The binding ability against human Myl9 was evaluated following the steps below by ELISA. Human Myl3-His and human Myl9-His were coated onto the wells of a 96-well plate (Nunc). After an overnight incubation at 4° C., the wells were blocked at room temperature for one hour with 1× Block Ace (DS Pharma Biomedical Co., Ltd.). After washing three times with 0.02% Tween 20/PBS, seven serial dilutions by six folds of the chimeric and humanized antibodies were made from a concentration of 10 μg/mL and added to the wells. After incubation at room temperature for one hour and washing three times, horseradish peroxidase-labeled anti-human IgG antibody (Jackson ImmunoResearch Laboratories) was added, and this was incubated at room temperature for one hour. After washing 5 times, TMBZ (3,3′,5,5′-tetramethylbenzidine) solution was added to the wells, and this was incubated for 5-20 minutes at room temperature. An equal amount of reaction quenching solution (2N H₂SO₄) was added to the wells, and absorbance at 450 nm was read with a microplate reader (PerkinElmer).
As to B3, the binding result is given as “binds”.

Turning to B4, the binding result was “binds”.

Regarding B5, the binding result is on record as “binds”.

Consider B6, for which the binding result is on record as “binds”.

The target of another assay is T3, human Myl12a-His. In words: ELISA, human Myl12a-His coated, anti-human IgG-HRP. The method, then:
(§1) The binding ability of chimeric and humanized antibodies prepared from Antibody A against human Myl12a and Myl12b was evaluated following the steps below by ELISA. Human Myl3-His, human Myl9-His, human Myl12a-His and human Myl12b-His were coated onto the wells of a 96-well plate (Nunc), respectively. After an overnight incubation at 4° C., the wells were blocked at room temperature for one hour with 1× Block Ace (DS Pharma Biomedical Co., Ltd.). After washing three times with 0.02% Tween 20/PBS, the chimeric and humanized antibodies were diluted at the concentration of 0.01, 0.1 and 1 μg/mL, respectively and added to the wells. After incubation at room temperature for one hour and washing three times, horseradish peroxidase-labeled anti-human IgG antibody (Jackson ImmunoResearch Laboratories) was added, and this was incubated at room temperature for one hour. After washing 5 times, TMBZ (3,3′,5,5′-tetramethylbenzidine) solution was added to the wells, and this was incubated for 5-20 minutes at room temperature. An equal amount of reaction quenching solution (2N H₂SO₄) was added to the wells, and absorbance at 450 nm was read with a microplate reader (Thermo Scientific).
B3: the binding result is given as “binds”.

On to B4, for which the binding result was “binds”.

For B5, the binding result is recorded as “binds”.

With B6, the binding result is “binds”.

The target of another assay is T4, human Myl12b-His. In words: ELISA, human Myl12b-His coated, anti-human IgG-HRP. The method, then: as §1
In the case of B3, the binding result is given as “binds”.

Turning to B4, the binding result was “binds”.

Regarding B5, the binding result is “binds”.

Consider B6, for which the binding result was “binds”.

A further assay has as its target T5, human Myl3-His (human, UniProt P08590 2-195, limits assumed).
T5 construct: Made in E. coli; the GST tag was cleaved with PreScission Protease
In words: ELISA at 0.01, 0.1 and 1 µg/mL, human Myl3-His coated, anti-human IgG-HRP. The method, then: as §1
Turning to B3, the binding result was “no binding (tested: 1 µg/mL)”.

On to B4, for which the binding result is reported as “no binding (tested: 1 µg/mL)”.

On to B5, for which the binding result is “no binding (tested: 1 µg/mL)”.

On to B6, for which the binding result is “no binding (tested: 1 µg/mL)”.
